Consider 1 molecule from paper PMC10127259.

Conditions in all cases: remark: other sources report otherwise
Assay [1] has as its target T1, Nt17 peptide (the first 17 amino acids at the N-terminus of huntingtin), P42858.
T1 chain: MATLEKLMKAFESLKSF
Briefly: native MS; cVSSI-MS, positive ion mode; Nt17 10 uM incubated with pure POPC vesicles (0% cholesterol), 10:1 lipid:peptide, 24 h at 37 °C, 10 mM ammonium acetate; peak areas normalised to [M + 2H]2+.

In assay [2] the target is T1, Nt17 peptide (the first 17 amino acids …). Briefly: native MS; cVSSI-MS, positive ion mode; Nt17 10 uM incubated with pure DOPC vesicles (0% cholesterol), 10:1 lipid:peptide, 24 h at 37 °C, 10 mM ammonium acetate; peak areas normalised to [M + 2H]2+.
Assay [3] shares this target. Briefly: native MS; cVSSI-MS, positive ion mode; Nt17 10 uM incubated with POPG vesicles with 20% exogenous cholesterol, 10:1 lipid:peptide, 24 h at 37 °C, 10 mM ammonium acetate; peak areas normalised to [M + 2H]2+.
The target is the same in assay [4]. Description: native MS; cVSSI-MS, positive ion mode; Nt17 10 uM incubated with POPC vesicles with 20% exogenous cholesterol, 10:1 lipid:peptide, 24 h at 37 °C, 10 mM ammonium acetate; peak areas normalised to [M + 2H]2+.
For assay [5] the target is unchanged. Briefly: native MS; cVSSI-MS, positive ion mode; Nt17 10 uM incubated with DOPC vesicles with 20% exogenous cholesterol, 10:1 lipid:peptide, 24 h at 37 °C, 10 mM ammonium acetate; peak areas normalised to [M + 2H]2+.

For the molecule MATLEKLMKAFESLKSF [Nt17 peptide (the first 17 amino acids at the N-terminus of huntingtin), P42858 1-17], in assay [1], the relative integrated peak area of [2M + 1L] (2 Nt17 + 1 POPC), against [M + 2H]2+ was found to be 1.3% and the relative integrated peak area of [3M + 1L] (3 Nt17 + 1 POPC), against [M + 2H]2+ was found to be 0.8%. Further, in assay [2], the relative peak area of [2M + 3L] (2 Nt17 + 3 DOPC), against [M + 2H]2+ was determined as 0.45%; the relative peak area of [3M + 1L] (3 Nt17 + 1 DOPC), against [M + 2H]2+ stood at 3.3%; the relative peak area of [4M + 1L] (4 Nt17 + 1 DOPC), against [M + 2H]2+ was 0.98%; the total relative peak area of complexes with three peptides, against [M + 2H]2+ is 3.6%. Further, the total relative peak area of complexes with two peptides, against [M + 2H]2+ in assay [2] was 10.3%. In assay [3], the relative peak area of [2M + 2L] (2 Nt17 + 2 POPG), against [M + 2H]2+ was determined as 23%; the relative peak area of [2M + 3L] (2 Nt17 + 3 POPG), against [M + 2H]2+ was 0.6%; the stoichiometry N (usually the number of molecules, sites or subunits per partner or assembly) was determined as 2. Further, in assay [4], the relative integrated peak area of [2M + 2L] (2 Nt17 + 2 POPC), against [M + 2H]2+ worked out at 0.11%; the relative integrated peak area of [3M + 1L] (3 Nt17 + 1 POPC), against [M + 2H]2+ turned out to be 1.1%; the total relative integrated peak area of complexes with two peptides, against [M + 2H]2+ amounted to 2.7%. In addition, in assay [5], the relative peak area of [2M + 3L] (2 Nt17 + 3 DOPC), against [M + 2H]2+ is 0.15%; the total relative peak area of complexes with four peptides, against [M + 2H]2+ stood at 1.2%; the total relative peak area of complexes with three peptides, against [M + 2H]2+ came to 4%; the total relative peak area of complexes with two peptides, against [M + 2H]2+ came to 8%.
